Holding throughout (assay): iTopia iScore
Test [1] addresses T1, MHC class I molecule A*0101 (biotin (bound to streptavidin-coated plate)).
T1 construct: also called A1; HLA-A1
As for the experimental part:
(§1) The 9 mers were tested for Peptide Binding, Off Rate and Affinity using iTopia Epitope Discovery System in accordance with the manufacturer's instructions. Briefly, 96 well microtitre plates coated with MHC molecules representing different MHC alleles are used to identify candidate peptides. […] Determinations are performed in duplicate using an ELISA plate reader and included allele specific positive controls.
(§2) Finally, multiparametric analysis is performed on the results from these assays and an iScore is generated. The iScore represents a measure of the overall quality of peptide-MHC binding, enabling candidate peptides to be ranked in order of binding quality and allowing rational prioritisation of peptides for functional cellular follow-up studies.

Test [2] deals with T2, MHC class I molecule A*0201 (biotin (bound to streptavidin-coated plate)).
T2 construct: also called A2; HLA-A2
The method, then:
as §1, §2

The target of test [3] is T3, MHC class I molecule A*0301 (biotin (bound to streptavidin-coated plate)).
T3 construct: also called A3; HLA-A3
As for the experimental part:
as §1, §2

Test [4] concerns the target T4, MHC class I molecule B*0702 (biotin (bound to streptavidin-coated plate)).
T4 construct: also called B7; HLA-B7
The method, then:
as §1, §2

In the case of DGRLRLARL [5T4 9-mer peptide 7 DGRLRLARL], the iScore in test [1] stood at 0; in test [2], 0; in test [3] it was 0; in test [4] it was 0.038.

With VSSSSPTSS [5T4 9-mer peptide 15 VSSSSPTSS], the iScore in test [1], in test [2], in test [3] and in test [4] was 0 in each case.

For the molecule SSSPTSSAS [5T4 9-mer peptide 16 SSSPTSSAS], the iScore in test [1], in test [2], in test [3] and in test [4] was 0 throughout.

As to RTVKCVNRN [5T4 9-mer peptide 37 RTVKCVNRN], the iScore in test [1], in test [2], in test [3] and in test [4] was 0 throughout.

LCECSEAAR [5T4 9-mer peptide 33 LCECSEAAR]: the iScore in test [1], in test [2], in test [3] and in test [4] was 0 each time.

On to TSSASSFSS [5T4 9-mer peptide 18 TSSASSFSS], for which the iScore in test [1] stood at 0; in test [2] it was 0.037; in test [3], 0; in test [4] it was 0.

In the case of PALCECSEA [5T4 9-mer peptide 32 PALCECSEA], the iScore came to 0 in test [1], 0.082 in test [2], 0 in test [3] and 0 in test [4].

Take APFLASAVS [5T4 9-mer peptide 23 APFLASAVS]: the iScore came out at 0 in test [1], 0.041 in test [2], 0 in test [3] and 0.176 in test [4].

For the molecule SASSFSSSA [5T4 9-mer peptide 19 SASSFSSSA], the iScore in test [1] amounted to 0; in test [2] it was 0.045; in test [3], 0; in test [4] it was 0.

As to ARLALVLLG [5T4 9-mer peptide 10 ARLALVLLG], the iScore is 0 in test [1], 0.143 in test [2], 0 in test [3] and 0 in test [4].

Turning to MPGGCSRGP [5T4 9-mer peptide 1 MPGGCSRGP], the iScore in test [1], in test [2], in test [3] and in test [4] was 0 each time.

On to ASAVSAQPP [5T4 9-mer peptide 25 ASAVSAQPP], for which the iScore in test [1], in test [2], in test [3] and in test [4] was 0 throughout.

PAAGDGRLR [5T4 9-mer peptide 5 PAAGDGRLR]: the iScore in test [1], in test [2], in test [3] and in test [4] was 0 each time.

Take SSFSSSAPF [5T4 9-mer peptide 20 SSFSSSAPF]: the iScore turned out to be 0 in test [1], 0.037 in test [2], 0 in test [3] and 0 in test [4].

In the case of FSSSAPFLA [5T4 9-mer peptide 21 FSSSAPFLA], the iScore in test [1] was found to be 0.023; in test [2], 0.116; in test [3], 0; in test [4], 0.

Take LLGWVSSSS [5T4 9-mer peptide 13 LLGWVSSSS]: the iScore amounted to 0 in test [1], 0.243 in test [2], 0 in test [3] and 0 in test [4].

Turning to SEAARTVKC [5T4 9-mer peptide 35 SEAARTVKC], the iScore in test [1], in test [2], in test [3] and in test [4] was 0 throughout.

For AGDGRLRLA [5T4 9-mer peptide 6 AGDGRLRLA], the iScore in test [1] was determined as 0; in test [2] it was 0.023; in test [3], 0; in test [4] it was 0.

Regarding CSRGPAAGD [5T4 9-mer peptide 3 CSRGPAAGD], the iScore in test [1], in test [2], in test [3] and in test [4] was 0 in each case.

In the case of SAQPPLPDQ [5T4 9-mer peptide 27 SAQPPLPDQ], the iScore in test [1], in test [2], in test [3] and in test [4] was 0 each time.

As to SSAPFLASA [5T4 9-mer peptide 22 SSAPFLASA], the iScore in test [1] came to 0; in test [2], 0.389; in test [3], 0; in test [4], 0.

As for FLASAVSAQ [5T4 9-mer peptide 24 FLASAVSAQ], the iScore came out at 0 in test [1], 0.134 in test [2], 0 in test [3] and 0 in test [4].

For the molecule AVSAQPPLP [5T4 9-mer peptide 26 AVSAQPPLP], the iScore came to 0 in test [1], 0.062 in test [2], 0 in test [3] and 0 in test [4].

On to AARTVKCVN [5T4 9-mer peptide 36 AARTVKCVN], for which the iScore stood at 0 in test [1], 0.115 in test [2], 0 in test [3] and 0.059 in test [4].

Regarding RGPAAGDGR [5T4 9-mer peptide 4 RGPAAGDGR], the iScore turned out to be 0 in test [1], 0.032 in test [2], 0 in test [3] and 0 in test [4].

Take ECSEAARTV [5T4 9-mer peptide 34 ECSEAARTV]: the iScore in test [1], in test [2], in test [3] and in test [4] was 0 in each case.

As to GWVSSSSPT [5T4 9-mer peptide 14 GWVSSSSPT], the iScore is 0 in test [1], 0.044 in test [2], 0 in test [3] and 0 in test [4].

With PDQCPALCE [5T4 9-mer peptide 30 PDQCPALCE], the iScore in test [1], in test [2], in test [3] and in test [4] was 0 throughout.

Consider LALVLLGWV [5T4 9-mer peptide 11 LALVLLGWV], for which the iScore in test [1] came out at 0; in test [2], 0.237; in test [3], 0; in test [4], 0.

Take SPTSSASSF [5T4 9-mer peptide 17 SPTSSASSF]: the iScore in test [1] is 0; in test [2], 0; in test [3] it was 0; in test [4], 0.335.

Regarding QPPLPDQCP [5T4 9-mer peptide 28 QPPLPDQCP], the iScore in test [1], in test [2], in test [3] and in test [4] was 0 in each case.

For RLRLARLAL [5T4 9-mer peptide 8 RLRLARLAL], the iScore stood at 0 in test [1], 0.216 in test [2], 0.027 in test [3] and 1 in test [4].

In the case of LVLLGWVSS [5T4 9-mer peptide 12 LVLLGWVSS], the iScore was 0 in test [1], 0.122 in test [2], 0 in test [3] and 0 in test [4].

For the molecule GGCSRGPAA [5T4 9-mer peptide 2 GGCSRGPAA], the iScore in test [1] came out at 0; in test [2], 0.016; in test [3], 0; in test [4], 0.012.

Turning to PLPDQCPAL [5T4 9-mer peptide 29 PLPDQCPAL], the iScore in test [1] came to 0; in test [2], 0.88; in test [3] it was 0; in test [4] it was 0.

Turning to QCPALCECS [5T4 9-mer peptide 31 QCPALCECS], the iScore in test [1], in test [2], in test [3] and in test [4] was 0 in each case.

(Values after patent US20090280138A1 (OXFORD BIOMEDICA UK, published 2009).)
